From US20190002945A1

Molecular target: deglycosylated rituximab (Fucα1,6GlcNAc-rituximab)
Test: cell-based or functional assay

Substance	KM (µM), transglycosylation kinetics for the deglycosylated rituximab [µM]	KM relative to Endo-S2 D184M [fold]
Endo-S D233M mutant (Streptococcus pyogenes Endoglycosidase-S Asp-233-Met) (from UniProt Q99Y92 37-995) (enzyme)	30.2	
Endo-S D233A mutant (Streptococcus pyogenes Endoglycosidase-S Asp-233-Ala) (from UniProt Q99Y92 37-995) (enzyme)	> 200	
Endo-S2 D184M mutant (D184M mutant of wild type Endo-S2) (from UniProt T1WGN1 37-843) (enzyme)	32.6	
Endo-S2 D184A mutant (D184A mutant of wild type Endo-S2) (from UniProt T1WGN1 37-843) (enzyme)	> 680	> 20
